No end group written: not given here. *: point of attachment. Biotin = O=C1N[C@H]2[C@H](CS[C@H]2CCCCC(=O)*)N1
Target: His-tagged CNA
Assay: SPR

Binder: Biotin-AAAMAGFPPEITVTPPTP [CABIN1-L-1]
- Kd: 512 nM

From patent US20240376163A1 (published 2024)
